One may read the Km as the concentration of substrate that gives half-maximal velocity.

Consider one substance from PMC5352144, “Deacetylation of sialic acid by esterases potentiates pneumococcal neuraminidase activity for mucin utilization, colonization and virulence” (PLoS Pathogens, 2017).

In this series the test system is CC(=O)Oc1ccc([N+](=O)[O-])cc1. Description: purified protein. The note with it: pH 7.5.

Regarding Axe (Streptococcus pneumoniae D39), the Km was 4.4 ± 0.58 mM.
